Assay results published in patent US20140141454A1.

Biological target: human EpCAM immobilized with paraformaldehyde (on PFA-treated MCF-7 or PC-3 cells) (human) (UniProt P16422)
Experiment: liquid-phase ELISA on PC-3 cells in suspension, PFA-treated against untreated

Sequence of UniProt P16422 (P16422 24-314 limits assumed): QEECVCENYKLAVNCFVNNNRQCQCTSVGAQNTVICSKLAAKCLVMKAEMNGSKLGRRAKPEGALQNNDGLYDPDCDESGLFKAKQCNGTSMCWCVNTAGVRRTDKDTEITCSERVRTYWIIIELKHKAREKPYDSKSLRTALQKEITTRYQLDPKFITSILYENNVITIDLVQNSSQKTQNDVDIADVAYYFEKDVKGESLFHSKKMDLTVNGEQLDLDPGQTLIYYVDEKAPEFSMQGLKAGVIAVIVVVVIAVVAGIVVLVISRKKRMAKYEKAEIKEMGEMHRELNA

fold change of ELISA signal after 4% PFA treatment: < 1.5 fold
Substance: HEA-125 anti-EpCAM monoclonal antibody
